# Reference: the DeepSol protein solubility set
# Assay: soluble on expression in E. coli; label from the status in PepcDB or PDB records
row,Sequence,soluble on expression in E. coli
1,DAPLPHLRFALASCANWEAGFFAAYGDIARRADAGELEMLIFLGDYIYEYATGMFAGKDGVVRPHQPLHETITLEHYRTRYGHYRSDNHLQAAHAALPWIVMWDDHESANNSNREGAQNHSADEGSWVDRQNAARQVFLEWMPIRQEDTLYRSFTFGDLATLSLLDLRSFRDPAPSQQQWLEGQRADTMMGSQQFEWLKSNVEHTTTTWNIIGSSVMFAPMAITGQPLFQIPEPIPANLDQWDGYSRERDRLLAVLADFATPTLFLSGDIH,not soluble
2,AHHHHHHASAKWVCKICGYIYDEDAGDPDNGISPGTKFEELPDDWVCPICGAPKSEFEKLEDGSPKLMTGFVRASGYANKVRRVLFAITRGKVFPEEVVKAAGELNKIIFEKLQEMGVKKEDVVRISVDFNIEDGKIVWNLDSLEIETYKKEEEEKLALAMEEVEHMEKMFEETVKELEALSDKLREISKEISELVERMKQEYTGLKLRSE,soluble
3,MAHHHHHHMSRLKHVEWDEKNLEANAEYQRQHPVTIHITEPKTPYSYADGDDLEAEEEGLLKWDPAVNAKVKEIKEQIAGDFSDRPVAPIAKSGRPMLAEGTSTGELAQQQHQKEFRKMRKAVYADEGAMFKRALSHECKDEDDE,not soluble
4,MASDESMVPYYQWNFAPVVRGIARTQARVEVLRDGYTVSNELVPSGPFELANLPLGGGSGELKVIIHESDGTKQVFTVPYDTPAVALRKG,soluble
5,QQCGQTAPLINERLSYMKDVAGYKAENHLPIEDRIQEEKVINSAMAQAESLGLNGESIKPLMVAQINAAKAIQYRYRADWLSQPEPGWQPKPLDDVRANIGELSTKILEQIAEELKTCKPAEMGDKAHFINTIRQHNLTSADVEAIFSTFNQVKLK,soluble
6,SNPAAEAEFNILLATDSYKVTHYKQYPPNTSKVYSYFECREKKTENSKLRKVKYEETVFYGLQYILNKYLKGKVVTKEKIQEAKDVYKEHFQDDVFNEKGWNYILEKYDGHLPIEIKAVPEGFVIPRGNVLFTVENTDPECYWLTNWIETILVQSWYPITVATNSREQKKILAKYLLETSGNLDGLEYKLHDFGYRGVSSQETAGIGASAHLVNFKGTDTVAGLALIKKYYGTKDPVPGYSVPAAEHSTITAWGKDHEKDAFEHIVTQFSSVPVSVVSDSYDIYNACEKIWGEDLRHLIVSRSTQAPLIIRPDSGNPLDTVLKVLEILGKKFPVTENSKGYKLLPPYLRVIQGDGVDINTLQEVCVLY,not soluble
7,MEDERIKLLFKEKALEILMTIYYESLGGNDVYIQYIASKVNSPHSYVWLIIKKFEEAKMVECELEGRTKIIRLTDKGQKIAQQIKSIIDIMENDT,soluble
8,MSLLLRMMGWKALVPSANPLQSVICVAPHTSNYDFLLGKLYYWSIGRKAGFLMKKEWFFFPLGPIFRAMGGIPIDRSKRGSTVEQVREFFQRHAVFNVAITPEGTRDYSPQWKTGFYRIAVGAGVPIQLAVIDYSYKEMSVFELFTPTGNEEADIAYIRSRYRASQARHPRNFAESEIEGHHHHHH,soluble
9,MGSDKIHHHHHHMTNKNYLLYVDNEKYVLRLPGVMTSNLISRHYEMNNSILMSQAEFNVETIYFNADNGIKITKFLEKGINFNHNNIHQYEYLFLISKELYKLHHSDIQFNNEFNVFETFQQYFDLLKDKNGFFCFNKNIPLIYEFFIKISKNNSFYNIKCPCHNDLVPENILLKNNKLFFIDWEYSGMNAPLFDVAAFFLESRIPKEKQKYFLAHYDHHLDFEKSRMEILFHQFTQDVLWFLWTLIKEENNETFENYASIRINRAYELMKDLVKNEVI,not soluble
10,MLPEKRLLTPDDMKLWEESPTRAHFTKFIIDLAESVKGHENSQYKEPISESINSMMNLLSQIKDITQKHPVIKDADSSRFGKVEFRDFYDEVSRNSRKILRSEFPSLTDEQLEQLSIYLDESWGNKRRIDYGSGHELNFMCLLYGLYSYGIFNLSNDSTNLVLKVFIEYLKIMRILETKYWLEPAGSHGVWGLDDYHFLPFLFGAFQLTTHKHLKPISIHNNELVEMFAHRYLYFGCIAFINKVKSSASLRWHSPMLDDISGVKTWSKVAEGMIKMYKAEVLSKLPIMQHFYFSEFLPCPDGVSPPRGHIHDGTDKDDECNFEGHVHTTWGDCCGIKLPSAIAATEMNKKHHKPIPFD,soluble
11,YIGSQDTPYTGGLINTFSYKNWELTANLSFNLGGYVRTTPSYNFINFDRGQNVNSDILDRWTPENTDGRLPALITSEKRADEYYWYDQKSEIYKNLDIWVKKLNYFRLQNLRLGYRLPEKMTKSLGMGSASVAIEGRNLLVFGSSYKNFLDPESMYNPYAPPIPKSITFSLNLNF,not soluble
12,SQEVMKNLSLNFGKALDECKKEMTLTDAINEDFYNFWKEGYEIKNRETGCAIMCLSTKLNMLDPEGNLHHGNAMEFAKKHGADETMAQQLIDIVHGCEKSTPANDDKCIWTLGVATCFKAEIHKLNWAPSMDVAVGEILAEV,soluble
13,MATKEKHVRKPDWVKIKLNTNENYIGLKKLMRENRLHTVCEEAKCPNIHECWAVRRTATFMILGSVCTRACRFCAVKTGLPTELDWQEPERVAESVRIMNLKHVVVTAVARDDLKDGGAAVFAETVRAIRRKNPFTTIEVLPSDMGGVYENLKILMDARPDILNHNIETVRRLTPRVRARATYERSLEFLRRAKELQPDIPTKSSIMVGLGETKEEIIEAMDDLRANHVDILTIGQYLQPTKKHLKVVKYYHPDEFQELKEIALSKGFSHCEAGPLVRSSYHADEQVSEAAKARQLKA,not soluble
14,MANFNVPKLGVFPVAAVFDIDNVPEDSSATGSRWLPSIYQGGNYWGGGPQALHAQVSNFDSSNRLPYNPRTENNPAGNCAFAFNPFGQYISNISSAQSVHRRIYGIDLNDEPLFSPNAASITNGGNPTMSQDTGYHNIGPINTAYKAEIFRPVNPLPMSDTAPDPETLEPGQTEPLIKSDGVYSNSGIASFIFDRPVTEPNPNWPPLPPPVIPIIYPTPALGIGAAAAYGFGYQVTVYRWEEIPVEFIADPETCPAQPTTDKVIIRTTDLNPEGSPCAYEAGIILVRQTSNPMNAVAGRLVPYVEDIAVDIFLTGKFFTLNPPLRITNNYFADDEVKENTVTIGNYTTTLSSAYYAVYKTDGYGGATCFIASGGAGISALVQLQDNSVLDVLYYSLPLSLGGSKAAIDEWVANNCGLFPMSGGLDKTTLLEIPRRQLEAINPQDGPGQYDLFILDDSGAYASFSSFIGYPEAAYYVAGAATFMDVENPDEIIFILRNGAGWYACEIGDALKIADDEFDSVDYFAYRGGVMFIGSARYTEGGDPLPIKYRAIIPGLPRGRLPRVVLEYQAVGMSFIPCQTHCLGKGGIISKV,not soluble
15,MGSDKIHHHHHHMKAVRVHILGSGGREHAIGWAFAKQGYEVHFYPGNAGTKRDGTNHPYEGEKTLKAIPEEDIVIPGSEEFLVEGVSNWRSNVFGPVKEVARLEGSKVYAKRFMKKYGIRTARFEVAETPEELREKIKKFSPPYVIKADGLARGKGVLILDSKEETIEKGSKLIIGELIKGVKGPVVIDEFLAGNELSAMAVVNGRNFVILPFVRDYKRLMDGDRGPNTGGMGSWGPVEIPSDTIKKIEELFDKTLWGVEKEGYAYRGFLYLGLMLHDGDPYILEYNVRLGDPETEVIVTLNPEGFVNAVLEGYRGGKMEPVEPRGFAVDVVLAARGYPDAPEKGKEITLPEEGLIFFAGVAEKDGKLVTNGGRVLHCMGTGETKEEARRKAYELAEKVHFEGKTYRRDIAL,soluble
16,MYDVVVVGAGPAGSRYARQAASRGLDVVVFEQGEIGKPLACSGHVSTDIWEFTEDARDELFQNEISGARFHTGGPGSQDHPFYKDEVISNVIDRVGLDKHLAGLARDAGADVREAHSVVGVTEDRDGVTVEVRGDDGVETHRAKMVAGCDGPKSRVRRELDLPEPDELLHGVLGFSDEVDHGDFVDVHLTVPRFFAWRIPRGEAGVEYGLAVPPGDDARGRFEEFVDGYGVETDHRCSGLIPIGPPKRVTGRRSFLIGDAAAQTKPFTGGGIRYGMTAADHAAREIDPEDPATLGEYERAWRDDLRQEIRLGHAVRAGYSAPEPIQKAGMKAFEGEIGVHMDRPTTLFSREQLAALFSRSLEHHHHHH,soluble
17,MGHHHHHHSHMTDFEDKQVANNETMEDAMNSVQEVSVGDIVKGEVLAIEDKQVVVGIEGAGVEGVVPAKELSTLPVEDVHELVKVGDVLDLVVITSIGKDKENGSYLLSKRRLDAKKVWEEIEQDFQAGKVIEAPVTNVVKGGLVVDVGVRGFVPASMVEDHFVADFSEYKGQTLAFKIIEIEPSENRLILSHKAVVEAEKESKKEELLSSLHDGDVVEGKVARLTDFGAFIDLGGVDGLVHVSEIAHQHVGKPSDALTVGEDVQVKILSINPEEGRISLSIKETLPGPWTDIETKAAAGTVLDGTVKRLTSFGAFVEVFPGVEGLVHISQISHKHIATPHEVLHEGDQVQVKVLEVNPEEHRIALSIKALEPKPESQEEPKEEQEYELPEENTGFTMGDILGDALSDAKEEE,soluble
18,MSQDLQKEVASRKTFAIISHPDAGKTTITEQLLLFGGVIRSAGTVKGKKSGKFATSDWMEIEKQRGISVTSSVMQFDYNGSRINILDTPGHSDFSEDTYRTLMAVDSAVMVIDAAKGIEAQTLKLFKVCRMRGIPIFTFINKMDRQGKMPLELLAELEEVLGIESYPMNWPIGMGKELAGLYDRYHRVIEQYRSEEDERFLPLGEDGDLKEAHAIQKSLYYDQALEEIMLLDEAGNDFSRERIIAGEQTPVFFGSALTNFGVETFLRTFVDFAPAPSSHESNEGVIEADNPKFSGFIFKIQANMNPAHRDRIAFIRICSGEFERGMNVTLTRTGKSLKLANSTQFMADDRETVNRAVAGDIIGLYDTGNYQIGDTITNGSKKLEFEKLPQFTPELFMRVYAKNVMKQKHFHKGVEQLVQEGAIQLFKTWRTEEYIIGAVGQLQFEVFEHRMRGEYNSEIRMEPIGKKIARWVKEEDADEKLSTARSMLVKDRFDQPLFLFENEFAINWFNDKNPDIELTSLL,not soluble
19,MAHHHHHHMIPRYDGLVPAIRGPASACAVASVNATPSSTTKRTAAATTVARYVICPVETTGTENAHVNATAERERRLFAFLPSVDCAAPPRELRVSSHYFEDALVASVASSDAESGEDLDEGEESHTSTARRGNTREDGAHGSNSGSRKRRRARRREPMRLEYDGFLAPATEATKRVRLVSTPASEYSHLTCVLLQLPTAWREQDMDEGEGHGRTACVSSSSTSKPLITSMPLRRPILQLWGERNTAAAGPNDGSLCTGSSAASISAAWGSDTRLQISKKDWKTMDAAEEDLHKPTNWSDDDGGDASDEGRGKSASGADDAISARARKREREEATSIAVRSFLAGTKEALRQQGAVGAADGFAQPQPAVRSDNAAPVSARVETSAPVKAAAKRATVTVPLSSGSSGSRVRSSVATPAVPPTHALTTNSAAPLPSSGVAPPDGSASLDSLACTVVTGMLSSEARRAATLMELQKRILKQLPEFATMSQKMKSTATKQEAVAWFQTSQQALRAWLVEHGHTIDSDGTVTFGDA,not soluble
20,MELIRWAIELGESVHGNTYEELMPLLDYYYDRDHLKAYCIANLLLNMDVLDEDRERIELRRCIAAYYAGLYKVARKHANELVLKHPDVDLYKNNLRLMEVYLNKEYDYCLFICPKTYGSFIDIARALKWRLEQEGNTVIISETILENVKNTVVFGAHTYAYNPNLLPKDAIVYNLEQLYEGSPYAHPLYLILLKDRVIWDYSKQNIEWLKQKGVGKEIKHVEMNYAPTLEIKKDAFEDEIIEDIDILFIGALNPRRQAIFDHLKAIAPNLNIVFKNNAWGIVRNELIARAKIILNIHFYLSGILETPRVSYAVANKKFIISENSNPEDEVEWPGIVFTPYEKIIENVMKYIELPEERKRLAEKAYNHFEANESLGTLSMRDETK,not soluble
